Laboratory results as given in paper PMC12203670.
Where “and” joins values, the source holds several entries; their conditions need not be identical. Equal values may be shown once.

Biological target: PKM2 (pyruvate kinase M2), endogenous in mouse heart (mouse (endogenous in heart)) (UniProt P52480)
Test: cross-linking; cross-linking of cardiac PKM2, Western blot of monomer, dimer and tetramer; hearts of Ctrl and cKO mice after 3-h reperfusion, with TEPP-46 or vehicle, or with Ad-Mtx2

PKM2 (pyruvate kinase M2), endogenous in mouse heart, P52480 1-531 (enzyme; other documents disagree on this pair), sequence (P52480 whole entry): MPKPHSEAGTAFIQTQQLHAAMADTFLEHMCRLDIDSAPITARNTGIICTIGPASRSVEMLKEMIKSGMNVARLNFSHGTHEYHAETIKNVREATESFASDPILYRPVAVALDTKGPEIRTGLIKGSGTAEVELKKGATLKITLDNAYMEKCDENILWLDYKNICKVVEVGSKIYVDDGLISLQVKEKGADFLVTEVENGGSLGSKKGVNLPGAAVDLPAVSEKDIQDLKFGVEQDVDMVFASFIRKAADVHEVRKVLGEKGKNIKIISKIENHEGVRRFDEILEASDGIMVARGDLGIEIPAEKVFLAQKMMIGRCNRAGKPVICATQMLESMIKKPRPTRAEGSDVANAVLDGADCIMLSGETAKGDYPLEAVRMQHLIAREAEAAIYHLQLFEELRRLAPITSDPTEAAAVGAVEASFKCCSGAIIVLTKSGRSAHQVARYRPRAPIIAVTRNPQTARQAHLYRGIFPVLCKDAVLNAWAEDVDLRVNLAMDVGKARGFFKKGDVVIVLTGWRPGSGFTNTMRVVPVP

Substance: PKM2 (pyruvate kinase M2), endogenous in mouse heart, P52480 1-531 (enzyme; other documents disagree on this pair)
- stoichiometry N: 4 and 2
